Here are results for one molecule from paper PMC8376870 (2021).

For the experiment, the target named is GST-G511-V540 (TRPV6 S5 fragment) (Homo sapiens (Human), UniProt Q9H1D0). In words: in vitro pull-down (GST/His-MBP) with western blot. For orientation: In western blotting, separated proteins are transferred to a membrane and probed.
GST-G511-V540 (TRPV6 S5 fragment), sequence (Q9H1D0 511-540): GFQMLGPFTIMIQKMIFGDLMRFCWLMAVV

B1: His-MBP-A603-L632 (TRPV6 S6 fragment) (protein)
chain: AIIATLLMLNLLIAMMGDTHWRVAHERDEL
Consider B1, for which the binding result is recorded as “binds”.
